Like-named read-outs stand apart in the source and are kept apart here. Bounds are passed on as bounds.

In assay [1] the target is Cynomolgus macaque CD1d on cells (cynomolgus macaque). Briefly: flow cytometry, biotinylated antibody and streptavidin-PE on cynomolgus PBMC, gated live cells. Background: Flow cytometry measures light scatter and fluorescence of single cells or particles in a stream.
Assay [2] deals with T1, Human CD1d on cells (human, UniProt P15813 20-335).
T1 sequence (looked up): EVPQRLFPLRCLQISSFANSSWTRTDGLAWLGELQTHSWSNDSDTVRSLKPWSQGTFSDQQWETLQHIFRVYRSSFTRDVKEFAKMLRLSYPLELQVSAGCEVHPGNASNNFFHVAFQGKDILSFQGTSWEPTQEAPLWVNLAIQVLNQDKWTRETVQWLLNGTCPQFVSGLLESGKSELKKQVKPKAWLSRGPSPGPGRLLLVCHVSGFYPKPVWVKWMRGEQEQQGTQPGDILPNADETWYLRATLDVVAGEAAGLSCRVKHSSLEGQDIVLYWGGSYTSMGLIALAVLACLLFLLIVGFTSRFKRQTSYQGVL
Nature of the assay: cell-based or functional assay.

Assay [3] addresses T2, CD1d tetramer loaded with α-GalCer (ProImmune) (UniProt P15813 20-301, limits assumed).
T2 construct: Bought reagent; also called fluorochrome-conjugated CD1d tetramer
T2 sequence (looked up): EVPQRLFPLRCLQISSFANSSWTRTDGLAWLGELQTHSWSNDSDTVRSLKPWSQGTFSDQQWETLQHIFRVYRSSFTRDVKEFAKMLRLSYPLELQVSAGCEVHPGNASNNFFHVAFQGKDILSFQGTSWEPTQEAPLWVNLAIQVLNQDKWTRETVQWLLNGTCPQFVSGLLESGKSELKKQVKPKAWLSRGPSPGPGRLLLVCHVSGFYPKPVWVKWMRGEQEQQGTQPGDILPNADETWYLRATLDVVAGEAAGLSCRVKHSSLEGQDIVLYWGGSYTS
Nature of the assay: flow cytometry, inhibition of CD1d tetramer (10 nM) binding to NKTCR on J.RT3-T3.5 cells.

Assay [4] concerns the target T1, Human CD1d on cells. Briefly: cell-based or functional assay. The source holds these as a separate data set.
The target of assay [5] is T1, Human CD1d on cells. Briefly: cell-based or functional assay. This is another data set of the same source.
The target in assay [6] is T1, Human CD1d on cells. Nature of the assay: cell-based or functional assay. The source holds these as a separate data set.
The target in a further assay is T3, Human CD1d/β2M (human, UniProt P15813 20-301; P61769 21-119).
T3 construct: also called hCD1d; recombinant human CD1d
Nature of the assay: SPR, Protein A purified IgG.

In assay [1], “irrelevant specificity negative control antibody (human IgG1)” showed a percent CD1d-positive cells, Donor 1 of 4.14% and a percent CD1d-positive cells, Donor 2 of 4.22%.

The EC50 is the concentration at which the effect is half-maximal. In the case of anti-CD1d antibody 51.1 (eBioscience), in the assay with Human CD1d on cells [2], the IFN-γ EC50 (C24:1 βGluCer, moDC) turned out to be 0.112 µg/mL; the IFN-γ EC50 (primary CD14+ cells) was determined as 0.168 µg/mL; the IL-2 release EC50 (U-937 + NKTCR cell line) came to 0.0773 µg/mL; the IL-4 EC50 (C24:1 βGluCer, moDC) came to 0.113 µg/mL. In the assay with Human CD1d on cells [2], this molecule displayed an IL-5 EC50 (C24:1 βGluCer, moDC) of 0.0864 µg/mL; an IL-13 EC50 (C24:1 βGluCer, moDC) of 0.0668 µg/mL; an IL-13 EC50 (primary CD14+ cells) of 0.222 µg/mL; an NKT IFN-γ EC50 (moDC) above 1 µg/mL. In addition, in the assay with Human CD1d on cells [2], the TNF-α EC50 (C24:1 βGluCer, moDC) is 0.0297 µg/mL. This molecule also returned a concentration giving a half-maximal response (EC50) in assay [3] of 0.775 µg/mL.

On to anti-CD1d antibody 42 (BD Biosciences), for which, in the assay with Human CD1d on cells [2], the IFN-γ EC50 (C24:1 βGluCer, moDC) was determined as 0.139 µg/mL; the IFN-γ EC50 (THP-1) was 0.429 µg/mL; the IFN-γ EC50 (primary CD14+ cells) was 1.39 µg/mL; the IL-2 release EC50 (U-937 + NKTCR cell line) was 0.111 µg/mL. In the assay with Human CD1d on cells [2], this molecule came in with an IL-4 EC50 (C24:1 βGluCer, moDC) of 0.133 µg/mL; an IL-4 EC50 (THP-1) of 0.0761 µg/mL; an IL-4 EC50 (primary CD14+ cells) of 0.186 µg/mL; an IL-5 EC50 (C24:1 βGluCer, moDC) of 0.0819 µg/mL. In addition, in the assay with Human CD1d on cells [2], the IL-5 EC50 (THP-1) was 0.0647 µg/mL; the IL-5 EC50 (primary CD14+ cells) is 0.108 µg/mL; the IL-13 EC50 (C24:1 βGluCer, moDC) is 0.0523 µg/mL; the IL-13 EC50 (THP-1) turned out to be 0.154 µg/mL. For the same molecule, in the assay with Human CD1d on cells [2], the IL-13 EC50 (primary CD14+ cells) amounted to 0.844 µg/mL, the NKT IFN-γ EC50 (moDC) was above 1 µg/mL, the NKT IL-4 EC50 (moDC) worked out at 0.137 µg/mL and the NKT IL-5 EC50 (moDC) is 0.287 µg/mL. In the assay with Human CD1d on cells [2], this molecule came in with a TNF-α EC50 (C24:1 βGluCer, moDC) of 0.00569 µg/mL. In the assay with Human CD1d on cells [4], this molecule came in with an NKT IFN-γ EC50 (moDC) of 0.116 µg/mL and an NKT IL-13 EC50 (moDC) of 0.0175 µg/mL. This molecule also displayed an EC50 in assay [3] of 1.44 µg/mL.

B1: 402.8.53 (antibody, IgG4, V domains shown)
VH: QVQLQESGPGLVKPSETLSLTCAVYGGSFSGYYWSWIRQPPGKGLEWIGEINHAGSTNYNPSLKSRVTISVDTSKNQFSLKLSSVTAADTAVYYCARGEIYDFWKSYLDVWGKGTTVTVSS
VL: QTVVTQEPSLTVSPGGTVTLTCASSSGAVSSGNFPNWFQQKPGQAPRALIFSASNKHSWTPARFSGSLLGGKAVLTLSGVQPEDEAEYYCLLYFGDTQLGVFGGGTKVTVLG
Take B1: in the assay with Human CD1d on cells [5], the “NKT IFN-γ EC50 (moDC)” value was found to be 0.277 µg/mL and the “NKT IL-4 EC50 (moDC)” value stood at 0.105 µg/mL. In addition, in the assay with Human CD1d on cells [6], the “NKT IFN-γ EC50 (moDC)” value was 0.000658 µg/mL and the “NKT IL-13 EC50 (moDC)” value was 0.00152 µg/mL.

B2: 402.8.60 (antibody, IgG4, V domains shown)
VH: QVQLQESGPGLVRPSETLSLTCAVYGGSFSGYYWSWIRQPPGKGLEWIGEINHSGSTNYNPSLKSRVTISVDTSKNQFSLKLSSVTAADTAVYYCARGEIYDFYNSYMDVWGKGTTVTVSS
VL: QTVVTQEPSLTVSPGGTVTLTCASSSGAVSSGNFPNWFQQKPGQAPRALIFSASNKHSWTPARFSGSLLGGKAVLTLSGVQPEDEAEYYCLLYFGDTQLGVFGGGTKVTVLG
notes: IgG4 (S228P)
The Kd is the concentration at which binding is half-saturated. High values mean lower affinity, low ones higher affinity. B2 returned a Kd with Human CD1d/β2M of 0.198 nM. Also, in the assay with Human CD1d on cells [5], the “NKT IFN-γ EC50 (moDC)” value came to 0.0247 µg/mL and the “NKT IL-4 EC50 (moDC)” value came out at 0.0268 µg/mL. For the same molecule, in the assay with Human CD1d on cells [6], the “NKT IFN-γ EC50 (moDC)” value amounted to 0.000244 µg/mL and the “NKT IL-13 EC50 (moDC)” value amounted to 0.000189 µg/mL.

B3: 402.8.84 (antibody, IgG4, V domains shown)
VH: QVQLQESGPGLVKPSETLSLTCAVYGGSFSGYYWSWIRQPPGKGLEWIGEINHAGSTNYNPSLKSRVTISVDTSKNQFSLKLSSVTAADTAVYYCARGEIYDFYKSYLDVWGKGTTVTVSS
VL: QTVVTQEPSLTVSPGGTVTLTCASSSGAVSSGNFPNWFQQKPGQAPRALIFSASNKHSWTPARFSGSLLGGKAVLTLSGVQPEDEAEYYCLLYFGDTQLGVFGGGTKVTVLG
notes: IgG4 (S228P)
The molecule B3 had a Kd with Human CD1d/β2M of 0.587 nM. For the same molecule, in the assay with Human CD1d on cells [5], the “NKT IFN-γ EC50 (moDC)” value is 0.0306 µg/mL and the “NKT IL-4 EC50 (moDC)” value worked out at 0.000593 µg/mL. In addition, in the assay with Human CD1d on cells [6], the “NKT IFN-γ EC50 (moDC)” value was determined as 0.000516 µg/mL and the “NKT IL-13 EC50 (moDC)” value is 0.000663 µg/mL.

(Values after patent publication US20140286957A1 (Teva, published 2014).)
